In patent publication US20250170209A1 (published 2025):

B1: (CA28-AEEAc)8-PEG40k (peptide)
peptide: ICVXQDWGAHRCTK
modifications: not fully specified; N-terminal acetyl; 1-methyl-tryptophan at position 4; disulfide Cys2-Cys12; AEEAc between Thr13 and Lys; Lys side chain coupled to one arm of an eight-arm 40 kD PEG (SUNBRIGHT HGEO-400GS); C-terminal amide
B2: CA28-AEEAc-Lys-(PEG30k) (peptide)
peptide: ICVXQDWGAHRCTK
modifications: not fully specified; N-terminal acetyl; 1-methyl-tryptophan at position 4; disulfide Cys2-Cys12; AEEAc (8-amino-3,6-dioxaoctanoyl) between Thr13 and Lys; linear monofunctional 30 kD PEG (SUNBRIGHT ME-300GS) on the Lys side chain; C-terminal amide
B3: CA28-AEEAc-Lys-(PEG40k) (peptide)
peptide: ICVXQDWGAHRCTK
modifications: not fully specified; N-terminal acetyl; 1-methyl-tryptophan at position 4; disulfide Cys2-Cys12; AEEAc (8-amino-3,6-dioxaoctanoyl) between Thr13 and Lys; linear monofunctional 40 kD methoxy-PEG (SUNBRIGHT ME-400GS) on the Lys side chain; C-terminal amide

Legend:
complement component C3 [1] = molecular target: T1, complement component C3 (human, UniProt P01024 23-1663); experiment: cell-based or functional assay
complement component C3 [2] = molecular target: T1, complement component C3; experiment: cell-based or functional assay; remark: listed apart in the source

| Binder | IC50 on a molar basis (calculated for 7.5 CA28 moieties per molecule); classical complement inhibition assay (complement component C3 [1]) [nM] | IC50 as a function of CA28 concentration (per peptide moiety); classical complement inhibition assay (complement component C3 [2]) [nM] | activity relative to CA28 on a molar basis; classical complement inhibition assay (complement component C3 [1]) | IC50; classical complement inhibition assay (C3b deposition ELISA, human plasma) (complement component C3 [2]) [nM] |
| --- | --- | --- | --- | --- |
| B1 | ~260 | 1930 |  |  |
| B2 |  |  | ~30 % of the activity of CA28 | 1260 |
| B3 |  |  | ~30 % of the activity of CA28 | 1290 |
